In publication PMC6544384:

Experiments:
[1] = target: T1, ZLD full-length (rZLD) (UniProt Q9VWC6 1-1596); assay: EMSA
[2] = target: T1, ZLD full-length (rZLD); assay: competition
[3] = target: T2, ZLD DBD (MBP-ZLD1117-1487) (UniProt Q9VWC6 1117-1487); assay: competition
T2 sequence: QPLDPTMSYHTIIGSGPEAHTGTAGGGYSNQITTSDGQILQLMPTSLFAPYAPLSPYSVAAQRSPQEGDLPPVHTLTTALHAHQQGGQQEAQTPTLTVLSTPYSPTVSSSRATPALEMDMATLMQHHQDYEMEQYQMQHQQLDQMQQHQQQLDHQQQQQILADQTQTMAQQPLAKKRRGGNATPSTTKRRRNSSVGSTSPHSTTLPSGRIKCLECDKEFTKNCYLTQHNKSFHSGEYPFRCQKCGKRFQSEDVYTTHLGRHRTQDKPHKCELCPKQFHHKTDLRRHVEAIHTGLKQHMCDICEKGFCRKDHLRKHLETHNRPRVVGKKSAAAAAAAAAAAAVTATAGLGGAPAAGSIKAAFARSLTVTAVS

[4] = target: T1, ZLD full-length (rZLD); assay: competition; remark: listed apart in the source

T1 sequence (Q9VWC6 whole entry): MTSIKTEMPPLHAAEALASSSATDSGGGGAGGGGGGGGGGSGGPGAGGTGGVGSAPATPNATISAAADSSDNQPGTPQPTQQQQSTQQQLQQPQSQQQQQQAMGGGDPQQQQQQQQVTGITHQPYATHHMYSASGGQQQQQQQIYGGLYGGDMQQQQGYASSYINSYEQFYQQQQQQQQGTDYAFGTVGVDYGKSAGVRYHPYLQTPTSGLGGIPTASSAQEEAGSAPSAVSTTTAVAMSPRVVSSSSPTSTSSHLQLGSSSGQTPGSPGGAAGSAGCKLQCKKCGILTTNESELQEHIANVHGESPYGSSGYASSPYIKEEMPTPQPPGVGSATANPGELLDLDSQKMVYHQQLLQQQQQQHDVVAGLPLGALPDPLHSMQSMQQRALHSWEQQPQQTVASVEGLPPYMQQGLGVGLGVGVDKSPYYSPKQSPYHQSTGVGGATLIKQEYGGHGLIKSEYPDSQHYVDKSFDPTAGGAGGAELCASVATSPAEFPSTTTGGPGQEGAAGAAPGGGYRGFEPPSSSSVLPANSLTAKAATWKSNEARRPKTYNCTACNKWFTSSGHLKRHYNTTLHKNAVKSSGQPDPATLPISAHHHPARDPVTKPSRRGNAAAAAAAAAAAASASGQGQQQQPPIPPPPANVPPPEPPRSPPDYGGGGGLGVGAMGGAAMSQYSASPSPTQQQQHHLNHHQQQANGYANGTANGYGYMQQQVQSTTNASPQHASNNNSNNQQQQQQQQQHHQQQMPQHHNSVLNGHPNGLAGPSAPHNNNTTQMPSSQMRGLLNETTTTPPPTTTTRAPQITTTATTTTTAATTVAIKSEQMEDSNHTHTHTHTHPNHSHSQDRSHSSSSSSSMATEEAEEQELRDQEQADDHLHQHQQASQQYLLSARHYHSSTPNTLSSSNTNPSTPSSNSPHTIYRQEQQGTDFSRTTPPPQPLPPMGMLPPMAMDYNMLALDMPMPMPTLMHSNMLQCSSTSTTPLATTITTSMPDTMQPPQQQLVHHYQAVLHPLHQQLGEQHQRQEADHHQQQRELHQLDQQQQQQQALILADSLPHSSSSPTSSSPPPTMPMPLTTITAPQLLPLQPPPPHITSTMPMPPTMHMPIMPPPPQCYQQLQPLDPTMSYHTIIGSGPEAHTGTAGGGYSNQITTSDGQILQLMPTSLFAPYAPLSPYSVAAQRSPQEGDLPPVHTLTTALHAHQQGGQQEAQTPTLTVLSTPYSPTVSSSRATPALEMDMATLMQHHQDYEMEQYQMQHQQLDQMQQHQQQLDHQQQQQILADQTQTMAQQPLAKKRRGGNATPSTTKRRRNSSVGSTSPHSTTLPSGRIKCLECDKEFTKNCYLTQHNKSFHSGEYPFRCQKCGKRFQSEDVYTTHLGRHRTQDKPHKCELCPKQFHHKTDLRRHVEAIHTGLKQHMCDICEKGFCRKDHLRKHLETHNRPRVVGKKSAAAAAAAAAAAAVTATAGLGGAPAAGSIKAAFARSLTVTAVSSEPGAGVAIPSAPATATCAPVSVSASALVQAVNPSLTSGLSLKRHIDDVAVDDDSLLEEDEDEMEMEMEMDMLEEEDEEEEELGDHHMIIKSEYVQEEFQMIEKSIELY

B1: bnk DNA (dsDNA)
DNA 1: TCCTTTTTTACTTTCATAGCTTAGGTAGTGATCTCAGGTAGTTTCCCGGAATTAAGTTAGGCTGGGTATCGCCTATCGGGAGCGGCTACCTGAACTTTTGGCACCAGCTGTCGGGGGTGAAAACTGGACCAGGTAGTCTTTAGAAGTGCACCTATATAAG
DNA 2: CTTATATAGGTGCACTTCTAAAGACTACCTGGTCCAGTTTTCACCCCCGACAGCTGGTGCCAAAAGTTCAGGTAGCCGCTCCCGATAGGCGATACCCAGCCTAACTTAATTCCGGGAAACTACCTGAGATCACTACCTAAGCTATGAAAGTAAAAAAGGA
- binding result [1]: binds

B2: scute mutant (nonspecific competitor) (dsDNA)
DNA 1: GAGAGAGAGTAGTTCTGGCTCACT
DNA 2: AGTGAGCCAGAACTACTCTCTCTC
- binding result [2]: no binding

B3: scute wild-type (specific competitor) (dsDNA)
DNA 1: GAGAGAGACTACCTGTGGCTCACT
DNA 2: AGTGAGCCACAGGTAGTCTCTCTC
- binding result [3]: binds
- binding result [4]: binds
